Columns and labels:
[1] = target: T1, wild type human GM-CSF (human, UniProt P04141 18-144); test: SPR (Biacore), human GM-CSF coated on CM5 chip, antibody injected
T1 construct: Biacore and TF-1 assays used recombinant human GM-CSF (Peprotech); also called recombinant human GM-CSF; WT
Experimental: (§1) Recombinant human GM-CSF was coated onto a CM5 chip to determine the binding kinetics of 4K21 mAb. An uncoated flow cell was used as a reference. The antibody, prepared in HBS-EP at concentrations of 66.7 nM to 4.17 nM with 2-fold serial dilution, was injected for 2 minutes with a stabilisation time of 10 minutes and dissociation time of 15 minutes. The BIACore kinetic analysis wizard was run to determine each antibody's association (ka [1/Ms]), dissociation (kd[1/s]) and affinity (KD [nM]) to GM-CSF. […] Moreover, binding of 4K21 mAb to human GM-CSF is highly specific.

[2] = target: T1, wild type human GM-CSF; test: SPR (Biacore), alternative method of antibody capture; alternative method of antibody capture
[3] = target: T1, wild type human GM-CSF; test: cell-based or functional assay
[4] = target: T2, human GM-CSF mutant M2 (R24 to M37 replaced by murine sequence) (human); test: semi-quantitative ELISA; GM-CSF polypeptide coated in 2-fold dilutions (x axis = coating concentration), 4K21 fixed at 12.5 ng/ml, goat anti-mouse IgG-HRP, absorbance 450 nm
T2 construct: The flanking ranges are derived from the stated region
Experimental: (§2) The binding analysis of 4K21 to the mutant GM-CSF polypeptides M1 to M5b was performed using a semi-quantitative ELISA. Approximately equal amounts of GM-CSF were used to coat a Maxisorb (Nunc. Cat #464718) 384 well plate and serially diluted 2-fold to the bottom of the plate (16 times). Coating was performed overnight at room temperature. Plates were washed 3 times with wash buffer (1×PBS, 0.05% tween) and blocked for 1 hr at 37° C. with PBS, 1% BSA solution. Plates were then washed 3 times with wash buffer. […] The plates were washed 3 times with wash buffer then secondary antibody, HRP conjugated goat anti mouse IgG (Jackson Cat #115-036-062) for 4K21 and rabbit anti rat IgG (BD, cat#P0450) for the BD commercial antibody was added to the wells at 1/5000 dilution and incubated at 37° C. for 1 hr. Plates were washed 4 times following which BD OptEIA TMB substrate (Cat #555214), prepared according to the manufacturer's instructions, was added to the wells and incubated at room temperature for 10 minutes. The reaction was stopped with 1M sulphuric acid and the plate read on a Tecan plate reader at 450 nm with reference filter at 620 nm.

[5] = target: T3, murine GM-CSF (murine, UniProt P01587 18-141); test: semi-quantitative ELISA (data not shown)
T3 construct: also called wild type murine GM-CSF
T3 sequence (looked up): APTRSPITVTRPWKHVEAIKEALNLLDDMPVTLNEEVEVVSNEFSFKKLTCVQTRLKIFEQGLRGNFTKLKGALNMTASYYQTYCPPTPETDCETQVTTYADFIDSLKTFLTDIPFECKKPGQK

[6] = target: T1, wild type human GM-CSF; test: SPR (Biacore), human GM-CSF coated on CM5 chip, antibody injected; GM-CSF coated onto CM5 chip, antibody injected
Experimental: as §1

[7] = target: T4, S96A; test: semi-quantitative ELISA; GM-CSF polypeptide coated in serial dilutions (x axis = log coating concentration, no unit), 4K21 fixed at 12.5 ng/ml, goat anti-mouse IgG-HRP, absorbance
T4 construct: also called human GM-CSF alanine mutant S96A
Experimental: as §2
(§3) Binding analysis was carried out essentially as described above with the exception of the method of quantitation. The BD antibody was used to quantitate the relative expression of the alanine mutants as none of these mutants were in the M2 binding epitope of the BD antibody. […] The binding was then compared to 4K21 used at 12.5 ng/ml with the secondary antibody being goat anti-mouse IgG-HRP antibody (Cat #115-036-062) at 1/2500 dilution.

[8] = target: human GM-CSF alanine mutant C89A (human, UniProt P04141 18-144); test: as above
Experimental: as §2, §3

[9] = target: T5, Q100A; test: as above
T5 construct: also called human GM-CSF alanine mutant Q100A
Experimental: as §2, §3

[10] = target: T6, T99A; test: as above
T6 construct: also called human GM-CSF alanine mutant T99A; the BD entry of the legend box prints 'T97A'
Experimental: as §2, §3

[11] = target: human GM-CSF alanine mutant I101A (human, UniProt P04141 18-144); test: as above
Experimental: as §2, §3

T1 sequence (P04141 other isoform, or with tags, fused parts or gaps limits assumed): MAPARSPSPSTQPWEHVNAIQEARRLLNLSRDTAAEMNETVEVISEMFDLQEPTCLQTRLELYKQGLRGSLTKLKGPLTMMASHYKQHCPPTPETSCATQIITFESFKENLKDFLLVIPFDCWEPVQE
T5 sequence (single chain, as listed by the source Q100A Q100A): as the sequence (P04141 other isoform, or with tags, fused parts or gaps limits assumed) above, with Q100A counted along it
human GM-CSF alanine mutant I101A, sequence (P04141 other isoform, or with tags, fused parts or gaps I101A I101A limits assumed): as the sequence (P04141 other isoform, or with tags, fused parts or gaps limits assumed) above, with I101A counted along it
T6 sequence (single chain, as listed by the source T99A T99A): as the sequence (P04141 other isoform, or with tags, fused parts or gaps limits assumed) above, with T99A counted along it
T4 sequence (single chain, as listed by the source S96A S96A): as the sequence (P04141 other isoform, or with tags, fused parts or gaps limits assumed) above, with S96A counted along it
human GM-CSF alanine mutant C89A, sequence (P04141 other isoform, or with tags, fused parts or gaps C89A C89A limits assumed): as the sequence (P04141 other isoform, or with tags, fused parts or gaps limits assumed) above, with C89A counted along it
T2 sequence (P04141 other isoform, or with tags, fused parts or gaps mutant): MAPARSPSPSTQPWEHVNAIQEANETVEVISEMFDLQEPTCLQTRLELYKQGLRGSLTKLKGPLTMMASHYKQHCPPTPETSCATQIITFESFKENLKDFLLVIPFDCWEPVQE

B1: murine anti-human GM-CSF monoclonal antibody 4K21-O11-E14 (antibody, V domains shown)
VH: EVQLVESGGGLVKSGGSLKLSCAASGFAFSAYDMSWVRQTPEKRLELVAYISSGGSSFYYPDTVKGRFTISRDNAKNTLYLQMSSLKSEDTAMYYCTRHLGFDYWGQGTTLTVSS
VL: DVVMTQTPLSLPVSLGDQASISCRSSQSLVNSNGNTYLHWFLQKPGQSPKLLIYKVSNRFSGVPDRFSGSGSGTDFTLKISRVEAEDLGVYFCSQSTHVPPTFGGGTKLEIK
notes: Murine monoclonal antibody from a hybridoma (ECACC 07051601), detected with anti-mouse IgG; also called 4K21 mAb; mAb 4K21
Ka [1]: > 5.9e+09 M⁻¹ | Kd [1]: < 0.17 nM | koff [1]: < 1e-05 s⁻¹ | kon [1]: 59000 M⁻¹ s⁻¹ | Kd [2]: ~0.43 nM | IC50, neutralisation of human GM-CSF dependent TF-1 cell growth (3H-thymidine) [3]: ~308 pM | EC50 (read off the curve) [4]: ~0.02 mg/mL | binding result [5]: no binding | Kd [6]: ~0.2 nM | binding result [7]: binds | binding result [8]: binds | binding result [9]: binds | binding result [10]: binds | binding result [11]: binds
